In patent US8889621B2, “Inhibiting binding of FGF23 to the binary FGFR-Klotho complex for the treatment of hypophosphatemia” (New York University, priority 2009, dated 2014):
“Also recorded” adds a separate entry of the source. Peptide text beside a SMILES is read from it.

B1: FGF23^180-251: 72-amino acid C-terminal tail of human FGF23 (S180 to I251), expressed in E. coli (protein, listed as Homo sapiens)
chain: SAEDDSERDPLNVLKPRARMTPAPASCSQELPSAEDNSPMASDPLGVVRGGRVNTHAGGTGPEGCRPFAKFI
B2: FGF23^28-251: human FGF23 (A28 to I251), bioactive full-length ligand expressed in E. coli (protein, listed as Homo sapiens)
chain: ASPLLGSSWGGLIHLYTATARNSYHLQIHKNGHVDGAPHQTIYSALMIRSEDAGFVVITGVMSRRYLCMDFRGNIFGSHYFDPENCRFQHQTLENGYDVYHSPQYHFLVSLGRAKRAFLPGMNPPPYSQFLSRRNEIPLIHFNTPIPRRHTRSAEDDSERDPLNVLKPRARMTPAPASCSQELPSAEDNSPMASDPLGVVRGGRVNTHAGGTGPEGCRPFAKFI

What was measured:
Hyp mice = assay: Urine and serum phosphate in Hyp mice after IP injection; format: in vivo, mouse; details: vs vehicle; for serum phosphate: IP, FGF23^180-251 1 mg or FGF23^180-205 860 μg
Text: The anti-phosphaturic activity of FGF23 C-terminal peptides was examined in normal Sprague-Dawley rats and in Hyp mice, a mouse model of human X-linked hypophosphatemia (XLH) (Beck et al., “Pex/PEX Tissue Distribution and Evidence for a Deletion in the 3′ Region of the Pex Gene in X-linked Hypophosphatemic Mice,” J Clin Invest 99(6):1200-1209 (1997), Eicher et al., “Hypophosphatemia: Mouse Model for Human Familial Hypophosphatemic (Vitamin D-resistant) Rickets,” Proc Natl Acad Sci USA 73(12):4667-4671 […], Strom et al., “Pex Gene Deletions in Gy and Hyp Mice Provide Mouse Models for X-linked Hypophosphatemia,” Hum Mol Genet. 6(2):165-171 (1997), which are hereby incorporated by reference in their entirety). The animals were fed a complete, fixed formula diet containing 0.94% phosphate. Anesthetized rats (220-250 g body weight) were administered IV either FGF23^28-251 (0.1 μg kg body weight^−1) or FGF23^180-251 (0.1 μg kg body weight^−1) or vehicle. Before and 3 h after the injection, blood was drawn from the carotid artery and urine was collected through bladder catheterization. Plasma and urine chemistry of animals were analyzed using Vitros Chemistry Analyzer (Ortho-Clinical Diagnosis). 10- to 15-week old Hyp mice were fasted for 8-12 h before administering IP either FGF23^180-251 (1 mg) or FGF23^180-205 (860 μg) or vehicle. Before and 2 h, 4 h, 8 h, and 24 h after the injection, urine and serum samples were collected. Phosphate concentrations in urine and serum were determined using Phosphorus Liqui-UV Test (Stanbio Laboratory), and urine creatinine levels were measured using DetectX™ Urinary Creatinine Detection Kit (LuminosAssays).

NaPi-2A = NaPi-2A protein abundance in apical brush border membrane of rat kidney; format: in vivo; details: IV 0.1 μg kg body weight^−1, 3 h post injection, vs vehicle
Experimental: Immunoblot analysis of NaPi-2A and NaPi-2C protein abundance in renal cortex tissue and isolated brush border membrane vesicles (BBMV), and NaPi-2A immunostaining of renal tissue were performed as described (Bacic et al., “Activation of Dopamine Dl-like Receptors Induces Acute Internalization of the Renal Na^+/phosphate Cotransporter NaPi-IIa in Mouse Kidney and OK cells,” Am J Physiol Renal Physiol 288(4):F740-747 (2005), Loffing et al., “Renal Na/H Exchanger NHE-3 and Na—PO4 Cotransporter NaPi-2 Protein Expression in Glucocorticoid Excess and Deficient States,” J Am Soc Nephrol 9(9):1560-1567 (1998), Moe et al., “Dietary NaCl Modulates Na(+)-H+ Antiporter Activity in Renal Cortical Apical Membrane Vesicles,” Am J Physiol 260(1 Pt 2):F130-137 (1991), which are hereby incorporated by reference in their entirety).
For immunoblot, rat kidney cortices were dissected and homogenized, and BBMV were isolated (Loffing et al., “Renal Na/H Exchanger NHE-3 and Na—PO4 Cotransporter NaPi-2 Protein Expression in Glucocorticoid Excess and Deficient States,” J Am Soc Nephrol 9(9):1560-1567 (1998), Moe et al., “Dietary NaCl Modulates Na(+)-H+ Antiporter Activity in Renal Cortical Apical Membrane Vesicles. Am J Physiol 260(1 Pt 2):F130-137 (1991), which are hereby incorporated by reference in their entirety). […]

| Molecule | serum phosphate (Hyp mice) | NaPi-2A protein expression in the apical brush border membrane (NaPi-2A) | renal phosphate excretion (Hyp mice; IP 1 mg) |
| --- | --- | --- | --- |
| CSCC[C@H](NC(=O)[C@H](CCCNC(=N)N)NC(=O)[C@H](C)NC(=O)[C@H](CCCNC(=N)N)NC(=O)[C@@H]1CCCN1C(=O)[C@H](CCCCN)NC(=O)[C@H](CC(C)C)NC(=O)[C@@H](NC(=O)[C@H](CC(N)=O)NC(=O)[C@H](CC(C)C)NC(=O)[C@@H]1CCCN1C(=O)[C@H](CC(=O)O)NC(=O)[C@H](CCCNC(=N)N)NC(=O)[C@H](CCC(=O)O)NC(=O)[C@H](CO)NC(=O)[C@H](CC(=O)O)NC(=O)[C@H](CC(=O)O)NC(=O)[C@H](CCC(=O)O)NC(=O)[C@H](C)NC(=O)[C@@H](N)CO)C(C)C)C(=O)N[C@H](C(=O)N1CCC[C@H]1C(=O)N[C@@H](C)C(=O)N1CCC[C@H]1C(=O)N[C@@H](C)C(=O)N[C@@H](CO)C(=O)O)[C@@H](C)O [FGF23^180-205] (H-SAEDDSERDPLNVLKPRARMTPAPAS-OH; N-terminus and C-terminus assumed) | increase | – | – |
| B1 | elevated | increased | decrease |
| B2 | – | decrease; also recorded: diminished | – |
